From patent publication US20250049894A1, “TREATMENT OF NUDT2 MUTATION” (UNIVERSITÉ DE GENÈVE, priority 2021, published 2025) come the findings set out here.

Holding throughout (format): biochemical
The subject of assay [1] is Ap4A-RNA. The assay is described as follows: In vitro Ap4A-RNA decapping assay (cap-labelled RNA, thin-layer chromatography). To be noted: recombinant protein 250 nM to 750 nM, 37° C., 30 min, TLC. The method, then:
Briefly, using the Ap4A mixture (ATP and Ap4A) or Ap4A instead of ATP for in vitro transcription by MEGAshortscript™ T7 Transcription Kit (Life technologies; Cat. No. AM1354), we produced a 50 nt RNA. Template is the same as making 50 nt RNA for MEFs transfection. Note that if the mixture is used, this nucleotide mixture (ATP and Ap4A) still has all the components (lysine, inorganic pyrophosphatase etc) added during the Ap4A synthesis. In vitro transcription reaction was carried out at 37° C. for at least 4 h in a 20 μL reaction containing 6 pmol DNA template, 2 μL 10× reaction buffer, 2 μL of nucleotides (75 mM CTP, 75 mM UTP, 75 mM GTP), 2 μL of ATP/Ap4A mixture that we produced above, and 2 μL T7 enzyme mix (MEGAshortscript™ Kit, Life technologies, Cat. No. AM1354). After that, 1 μL TURBO DNase was added and incubated at 37° C. for 15 min to remove the DNA template. Unincorporated nucleotides were removed from the RNA preparation by Microspin G-25 Column (GE Healthcare, Cat. No. 27-5325-01), and the process was repeated twice. The radioactively labelled RNA was separated by 10% urea gel. […]
Decapping reaction products were resolved by PEI-cellulose TLC plates (Merk, Cat. No. 1057250001) and developed in 0.45 M (NH4)2SO4 in a glass chamber at room temperature. […] When required, signals were quantified by ImageQuantTL.

Assay [2] can be described thus: Ap4A hydrolysis assay (32P-labelled Ap4A, thin-layer chromatography). To be noted: 750 nM recombinant human NUDT2 or Nuclease P1 0.5 and 1 unit, TLC. The method, then:
To prepare radioactive Ap4A, we incubated 60 μCi of radioactive α-^32P-ATP (Perkin Elmer, Cat. no. BLU003X250UC; 75 fmol in 20 ul or 3.75 nM concentration) with 1 μM recombinant human Lys-tRNA synthetase (G540Y mutant) at 37° C. overnight in a 20 μl solution [100 mM Tris-HCl, pH 8.0, 10 mM MgCl2, 0.1 mM ZnCl2, 1 mM Lysine and 0.1 units inorganic pyrophosphatase (Sigma-Aldrich, Cat. no. I1643)].
We resolved the reaction products using thin-layer chromatography, using PEI-cellulose TLC plates (Merk, Cat. No. 1057250001) and developing it in 0.45 M (NH4)2SO4 using a glass chamber at room temperature. In addition to the ATP already present in the reaction, we see the presence of Ap4A (FIG. 9D). From this Ap4A mix (ATP and Ap4A), we obtained purified radioactive Ap4A (FIG. 9E) by HPLC (purification service kindly provided by Hartmann Analytic, Germany). For some experiments (FIG. 9F-G) we used this Ap4A mix (ATP and Ap4A). However, for most experiments (FIG. 2, FIG. 9E) the purified radioactive Ap4A was used.
For hydrolysis assays with Ap4A (AppppA, in bold is 32P), reactions were conducted as above, but the RNA was replaced with appropriate amount of HPLC-purified Ap4A. Hydrolysis assays were conducted with 750 nM of recombinant human NUDT2 or with Nuclease P1 (0.5 unit and 1 unit). NUDT2 hydrolyzes Ap4A (AppppA, in bold is 32P) into α-^32P-AMP and α-^32P-ATP (FIG. 2D).

Assay [3] concerns m^7G-RNA. Description: In vitro m7G-RNA decapping assay (cap-labelled RNA, thin-layer chromatography). To be noted: recombinant protein 250 nM to 750 nM, 37° C., 30 min, TLC.

B1: NUDT2: recombinant full-length human NUDT2, Nudix hydrolase for Ap4A (protein)
chain: ALRACGLIIFRRHLIPKMDNSTIEFLLLQASDGIHHWTPPKGHVDPGENDLETALRETREETGIEASQLTIIEGFRRELNYVARQKPKTVIYWLAEVKDYNVEIRLSQEHQAYRWLGLEEACQLAQFKEMKATLQEGHQFLCSTPA
B1: the Ap4A-RNA decapping activity entry in assay [1] is on record as “only NUDT2 has Ap4A-RNA decapping activity”. Besides, the “Hydrolysis of Ap4A” value in assay [2] is “mostly asymmetrically hydrolyzed into ATP (Appp) and AMP (pA)”. Moreover, in assay [3], the m7G-RNA decapping activity entry is “can decap m^7G-RNAs”.

B2: nuclease P1: nuclease used to hydrolyze RNAs prior to mass spectrometry (protein, UniProt P24289 1-270, looked up)
Nuclease P1: WGALGHATVAYVAQHYVSPEAASWAQGILGSSSSSYLASIASWADEYRLTSAGKWSASLHFIDAEDNPPTNCNVDYERDCGSSGCSISAIANYTQRVSDSSLSSENHAEALRFLVHFIGDMTQPLHDEAYAVGGNKINVTFDGYHDNLHSDWDTYMPQKLIGGHALSDAESWAKTLVQNIESGNYTAQAIGWIKGDNISEPITTATRWASDANALVCTVVMPHGAAALQTGDLYPTYYDSVIDTIELQIAKGGYRLANWINEIHGSEIAK
B2: the “Hydrolysis of Ap4A” value in assay [2] was “able to efficiently hydrolyse Ap4A”.

B3: 6×His-SUMO-tagged human NUDT2: recombinant full-length human NUDT2 with the larger 6×-His-SUMO tag (protein, UniProt P50583 1-147, looked up)
chain: MALRACGLIIFRRCLIPKVDNNAIEFLLLQASDGIHHWTPPKGHVEPGEDDLETALRETQEEAGIEAGQLTIIEGFKRELNYVARNKPKTVIYWLAEVKDYDVEIRLSHEHQAYRWLGLEEACQLAQFKEMKAALQEGHQFLCSIEA
modifications: full-length 6xHis-SUMO tag
notes: recombinant full-length human NUDT2 with the larger 6×-His-SUMO tag
As to B3, the m7G-RNA decapping activity entry in assay [3] was “poorly active”.

B4: NUDT12: recombinant untagged full-length human NUDT12 (protein, UniProt Q9BQG2 1-462, looked up)
chain: MSSVKRSLKQEIVTQFHCSAAEGDIAKLTGILSHSPSLLNETSENGWTALMYAARNGHPEIVQFLLEKGCDRSIVNKSRQTALDIAVFWGYKHIANLLATAKGGKKPWFLTNEVEECENYFSKTLLDRKSEKRNNSDWLLAKESHPATVFILFSDLNPLVTLGGNKESFQQPEVRLCQLNYTDIKDYLAQPEKITLIFLGVELEIKDKLLNYAGEVPREEEDGLVAWFALGIDPIAAEEFKQRHENCYFLHPPMPALLQLKEKEAGVVAQARSVLAWHSRYKFCPTCGNATKIEEGGYKRLCLKEDCPSLNGVHNTSYPRVDPVVIMQVIHPDGTKCLLGRQKRFPPGMFTCLAGFIEPGETIEDAVRREVEEESGVKVGHVQYVACQPWPMPSSLMIGCLALAVSTEIKVDKNEIEDARWFTREQVLDVLTKGKQQAFFVPPSRAIAHQLIKHWIRINPNL
modifications: full-length
Turning to B4, the Ap4A-RNA decapping activity result in assay [1] is “only NUDT2 has Ap4A-RNA decapping activity”.
